Reference: patent US20140271457A1 (AbbVie / Abbott, published 2014)

B1: AB397 (antibody, V domains shown)
VH: EVTLRESGPGLVKPTQTLTLTCTLYGFSLSTSDMGVDWIRQPPGKGLEWLAHIWWDDVKRYNPALKSRLTISKDTSKNQVVLKLTSVDPVDTATYYCARTVSSGYIYYAMDYWGQGTLVTVSS
VL: DIQMTQSPSSLSASVGDRVTISCRASQDIRNYLNWYQQKPGKAPKLLIFYTSKLHSGVPSRFSGSGSGTDYTLTISSLQPEDIATYYCQQGLTPPLTFGGGTKVEIKR
notes: parent antibody
B2: DVD3173 (bispecific antibody, IgG1)
VH: EVQLVQSGAEVKKPGASVKVSCKASGYTFNNYGIIWVRQAPGQGLEWMGWINTYTGKPTYAQKFQGRVTMTTDTSTSTAYMELSSLRSEDTAVYYCARKLFNTVAVTDNAMDYWGQGTTVTVSSGGGGSGGGGSEVQLVQSGAEVKKPGASVKVSCKASGYTFTSYWMHWVRQAPGQGLEWIGNINPKGGSNIYNEKFQGRVTMTRDTSISTAYMELSRLRSDDTAVYYCARLDYFGDSFDLWGQGTTVTVSS
VL: DIQMTQSPSSLSASVGDRVTITCRASQDIENYLNWYQQKPGKAPKLLIYYTSRLQSGVPSRFSGSGSGTDFTLTISSLQPEDFATYFCQQGNTQPPTFGQGTKLEIKRGGSGGGGSGDIQMTQSPSSLSASVGDRVTITCRASQGIRNYLNWYQQKPGKAPKLLIYYASNLEVGVPSRFSGSGSGTDYTLTISSLQPEDFATYYCQQDNRFPYTFGGGTKVEIKR
notes: DVD-Ig; wt hIgG1 + kappa constants
B3: DVD3174 (bispecific antibody, IgG1)
VH: EVQLVQSGAEVKKPGASVKVSCKASGYTFNNYGIIWVRQAPGQGLEWMGWINTYTGKPTYAQKFQGRVTMTTDTSTSTAYMELSSLRSEDTAVYYCARKLFNTVAVTDNAMDYWGQGTTVTVSSASTKGPEVQLVQSGAEVKKPGASVKVSCKASGYTFTSYWMHWVRQAPGQGLEWIGNINPKGGSNIYNEKFQGRVTMTRDTSISTAYMELSRLRSDDTAVYYCARLDYFGDSFDLWGQGTTVTVSS
VL: DIQMTQSPSSLSASVGDRVTITCRASQDIENYLNWYQQKPGKAPKLLIYYTSRLQSGVPSRFSGSGSGTDFTLTISSLQPEDFATYFCQQGNTQPPTFGQGTKLEIKRTVAAPDIQMTQSPSSLSASVGDRVTITCRASQGIRNYLNWYQQKPGKAPKLLIYYASNLEVGVPSRFSGSGSGTDYTLTISSLQPEDFATYYCQQDNRFPYTFGGGTKVEIKR
notes: as for B2
B4: DVD3176 (bispecific antibody, IgG1)
VH: B3 VH
VL: DIQMTQSPSSLSASVGDRVTITCRASQDIENYLNWYQQKPGKAPKLLIYYTSRLQSGVPSRFSGSGSGTDFTLTISSLQPEDFATYFCQQGNTQPPTFGQGTKLEIKRTVAAPSVFIFPPDIQMTQSPSSLSASVGDRVTITCRASQGIRNYLNWYQQKPGKAPKLLIYYASNLEVGVPSRFSGSGSGTDYTLTISSLQPEDFATYYCQQDNRFPYTFGGGTKVEIKR
notes: as for B2
B5: DVD3116 (bispecific antibody, IgG1)
VH: EVQLVQSGAEVKKPGASVKVSCKASGYTFNNYGIIWVRQAPGQGLEWMGWINTYTGKPTYAQKFQGRVTMTTDTSTSTAYMELSSLRSEDTAVYYCARKLFNTVAVTDNAMDYWGQGTTVTVSSASTKGPEVQLVQSGAEVKKPGASVKVSCKASGYTFTTYGVSWVRQAPGQGLEWMGEIYPGNYNTYYNEKFRGRVTMTTDTSTSTAYMELRSLRSDDTAVYYCARWRTSYFSDYGYFDYWGQGTTVTVSS
VL: DIQMTQSPSSLSASVGDRVTITCRASQDIENYLNWYQQKPGKAPKLLIYYTSRLQSGVPSRFSGSGSGTDFTLTISSLQPEDFATYFCQQGNTQPPTFGQGTKLEIKRTVAAPSVFIFPPDVVMTQSPLSLPVTLGQPASISCRSSQSLVHSHGNTYLHWYQQRPGQSPRLLIYTVSNRFSGVPDRFSGSGSGTDFTLKISRVEAEDVGVYYCSQSTHVPYTFGGGTKVEIKR
notes: as for B2
B6: DVD2766 (bispecific antibody, IgG1)
VH: EVQLVESGGGLVQPGGSLRLSCAASGFTFSNYGVEWVRQAPGKGLEWVSGIWADGSTHYADTVKSRFTISRDNSKNTLYLQMNSLRAEDTAVYYCAREWQHGPVAYWGQGTLVTVSSASTKGPEVQLVESGGGLVQPGGSLRLSCAASGFSLTNNNVNWVRQAPGKGLEWVGGVWAGGATDYNSALKSRFTISRDNSKNTAYLQMNSLRAEDTAVYYCARDGGYSSSTLYAMDAWGQGTLVTVSS
VL: DIQMTQSPSSLSASVGDRVTITCKASQLVSSAVAWYQQKPGKAPKLLIYWASTLHTGVPSRFSGSGSGTDFTLTISSLQPEDFATYYCQQHYRTPFTFGQGTKLEIKRTVAAPSVFIFPPDIQMTQSPSSLSASVGDRVTITCRASEDIYNALAWYQQKPGKAPKLLIYNTDTLHTGVPSRFSGSGSGTDYTLTISSLQPEDFATYFCQHYFHYPRTFGQGTKVEIKR
B7: DVD3287 (bispecific antibody)
VH: EVQLVQSGAEVKKPGASVKVSCKASGYTFANYGIIWVRQAPGQGLEWMGWINTYTGKPTYAQKFQGRVTMTTDTSTSTAYMELSSLRSEDTAVYYCARKLFTTMDVTDNAMDYWGQGTTVTVSSASTKGPSVFPLAPEVQLQQSGPELVTPGASVKISCKASGYTFTKYWLGWVKQSHGKSLEWIGDIYPGYDYTHYNEKFKDTATLTVDKSSSIAYMEIRGLTSEDSAVYYCARSDGSSTYWGQGTLVTVSA
VL: DIQMTQSPSSLSASVGDRVTITCRASQDISQYLNWYQQKPGKAPKLLIYYTSRLQSGVPSRFSGSGSGTDFTLTISSLQPEDFATYFCQQGNTWPPTFGQGTKLEIKRTVAAPDVQMIQSPSSLSASLGDIVTMTCTSSQNIVHSNGNTYLEWFQQKPGKAPKLLIYKVSNRFSGVPSRFSGSRYGTDFTLTISSLEDEDLATYFCFQVSHVPYTFGGGTKLEIKR
B8: DVD3043 (bispecific antibody, IgG1)
VH: EVQLVESGGGLVQPGGSLRLSCAASGFSLTNNNVNWVRQAPGKGLEWVGGVWAGGATDYNSALKSRFTISRDNSKNTAYLQMNSLRAEDTAVYYCARDGGYSSSTLYAMDAWGQGTLVTVSSGGGGSGGGGSEVQLVQSGAEVKKPGASVKVSCKASGYTFNNYGIIWVRQAPGQGLEWMGWINTYTGKPTYAQKFQGRVTMTTDTSTSTAYMELSSLRSEDTAVYYCARKLFNTVAVTDNAMDYWGQGTTVTVSS
VL: DIQMTQSPSSLSASVGDRVTITCRASEDIYNALAWYQQKPGKAPKLLIYNTDTLHTGVPSRFSGSGSGTDYTLTISSLQPEDFATYFCQHYFHYPRTFGQGTKVEIKRGGSGGGGSGDIQMTQSPSSLSASVGDRVTITCRASQDIENYLNWYQQKPGKAPKLLIYYTSRLQSGVPSRFSGSGSGTDFTLTISSLQPEDFATYFCQQGNTQPPTFGQGTKLEIKR
B9: DVD3044 (bispecific antibody, IgG1)
VH: EVQLVESGGGLVQPGGSLRLSCAASGFSLTNNNVNWVRQAPGKGLEWVGGVWAGGATDYNSALKSRFTISRDNSKNTAYLQMNSLRAEDTAVYYCARDGGYSSSTLYAMDAWGQGTLVTVSSASTKGPEVQLVQSGAEVKKPGASVKVSCKASGYTFNNYGIIWVRQAPGQGLEWMGWINTYTGKPTYAQKFQGRVTMTTDTSTSTAYMELSSLRSEDTAVYYCARKLFNTVAVTDNAMDYWGQGTTVTVSS
VL: DIQMTQSPSSLSASVGDRVTITCRASEDIYNALAWYQQKPGKAPKLLIYNTDTLHTGVPSRFSGSGSGTDYTLTISSLQPEDFATYFCQHYFHYPRTFGQGTKVEIKRTVAAPDIQMTQSPSSLSASVGDRVTITCRASQDIENYLNWYQQKPGKAPKLLIYYTSRLQSGVPSRFSGSGSGTDFTLTISSLQPEDFATYFCQQGNTQPPTFGQGTKLEIKR

Target: Recombinant Human IL-13 (human, UniProt P35225 35-146, limits assumed)
Sequence (P35225 35-146 limits assumed): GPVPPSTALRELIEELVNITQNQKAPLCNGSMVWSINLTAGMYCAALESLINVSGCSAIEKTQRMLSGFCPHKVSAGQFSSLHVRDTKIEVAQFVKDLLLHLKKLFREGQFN
Assay: Biacore SPR
Method: The BIACORE assay (GE, Healthcare Piscataway, N.J.) determined the affinity of antibodies or DVD-Ig with kinetic measurements of on-rate and off-rate constants. Binding of antibodies or DVD-Ig proteins to a target antigen (for example, a purified recombinant target antigen) was determined by surface plasmon resonance-based measurements with a Biacore T200 using running HBS-EP+buffer from GE Healthcare at 25° C. All chemicals were obtained from GE Healthcare or otherwise from a different source as described in the text. For example, approximately 5000 RU of goat anti-mouse IgG, (Fcγ), fragment specific polyclonal antibody (Pierce Biotechnology Inc, Rockford, Ill.) diluted in 10 mM sodium acetate (pH 4.5) was directly immobilized across a CM5 research grade biosensor chip using a standard amine coupling kit according to manufacturer's instructions. Unreacted moieties on the biosensor surface were blocked with ethanolamine. Modified carboxymethyl dextran surface in flowcell 1 was used as a reference surface. Rate constants were derived by making kinetic binding measurements at different antigen concentrations ranging from 0.8-100 nM. Binding was recorded as a function of time and kinetic rate constants were calculated. In this assay, association rate was evaluated for 5 min and dissociation was monitored for 10 min. For kinetic screening analysis, rate equations derived from the 1:1 binding model were fitted simultaneously to association and dissociation phases of all injections (using global fit analysis with Rmax fit locally to account for capture variations) with the use of Biaevaluation software. Purified antibodies or DVD-Ig proteins were diluted in HEPES-buffered saline for capture across goat anti-mouse IgG specific reaction surfaces. Antibodies or DVD-Ig proteins to be captured as a ligand were injected over reaction matrices at a flow rate of 5 μl/minute. The association and dissociation rate constants, kₒₙ (M⁻¹ s⁻¹) and koff (s⁻¹) were determined under a continuous flow rate of 50 μl/minute. Rate constants were derived by making kinetic binding measurements at different antigen concentrations ranging from 0.8-100 nM. Binding was recorded as a function of time and kinetic rate constants were calculated. In this assay, association rate was evaluated for 5 min and dissociation was monitored for 10 min.

**Q.** With B1 as the binder, how does the Kd read?
**A.** Its Kd is 0.13 nM.

**Q.** And the koff?
**A.** The koff was 0.00012 s⁻¹.

**Q.** And the kon?
**A.** The kon was 920000 M⁻¹ s⁻¹.

**Q.** Which Kd does the source give for B2 here?
**A.** The Kd was 0.37 nM.

**Q.** And the koff?
**A.** Its koff is 8.8e-05 s⁻¹.

**Q.** And the kon?
**A.** The kon was 240000 M⁻¹ s⁻¹.

**Q.** Which Kd does the source give for B3 here?
**A.** The Kd was 0.9 nM.

**Q.** And the koff?
**A.** The koff was 7.7e-05 s⁻¹.

**Q.** What about the kon of the same binder?
**A.** The kon was 85000 M⁻¹ s⁻¹.

**Q.** For B4, which Kd is on record?
**A.** Its Kd is 0.087 nM.

**Q.** What about the koff of the same binder?
**A.** The koff was 4.8e-05 s⁻¹.

**Q.** And the kon?
**A.** Its kon is 550000 M⁻¹ s⁻¹.

**Q.** How did the Kd turn out when B5 was run?
**A.** Its Kd is < 0.017 nM.

**Q.** And the koff?
**A.** The koff was < 1e-06 s⁻¹.

**Q.** And the kon?
**A.** The kon was 58000 M⁻¹ s⁻¹.

Target: Recombinant Human TNF-α/TNFSF1A (human, UniProt P01375 77-233)
Sequence (P01375 77-233 limits assumed): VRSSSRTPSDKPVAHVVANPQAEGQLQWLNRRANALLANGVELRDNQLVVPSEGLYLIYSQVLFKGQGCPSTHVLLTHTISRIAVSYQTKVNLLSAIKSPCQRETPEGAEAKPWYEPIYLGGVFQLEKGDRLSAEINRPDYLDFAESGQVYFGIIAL
Assay: cell-based or functional assay

**Q.** Which “N-Terminal VD huTNFα Neutralization Assay IC50” value does the source give for B6 here?
**A.** Its value is 0.01 nM.

**Q.** With B7 as the binder, how does the “N-Terminal VD huTNFα Neutralization Assay IC50” value read?
**A.** Its value is 0.018 nM.

**Q.** How did the “C-Terminal VD huTNFα Neutralization Assay IC50” value turn out when B8 was run?
**A.** Its value is 0.128 nM.

**Q.** B9 was tested. Which “C-Terminal VD huTNFα Neutralization Assay IC50” value did it give?
**A.** Its value is 0.673 nM.
